Source: article PMC3730827 (Cell, 2013)

How the values were obtained:
Assay in all cases: cryo-EM structure
[1] = target: ribosomal protein S3e (rabbit 40S subunit) (rabbit, UniProt G1TNM3 1-243)
[2] = target: ribosomal protein S10e (rabbit 40S subunit) (rabbit, UniProt G1T168 1-165)
[3] = target: ribosomal protein S12e (rabbit 40S subunit) (rabbit, UniProt G1SFR8 1-132)
[4] = target: ribosomal protein S23e (rabbit 40S subunit) (rabbit, UniProt G1SZ47 1-143)

Measured: binding result

B1: DHX29, recombinant human (enzyme)
chain: MGGKNKKHKAPAAAVVRAAVSASRAKSAEAGIAGEAQSKKPVSRPATAAAAAAGSREPRVKQGPKIYSFNSTNDSSGPANLDKSILKVVINNKLEQRIIGVINEHKKQNNDKGMISGRLTAKKLQDLYMALQAFSFKTKDIEDAMTNTLLYGGDLHSALDWLCLNLSDDALPEGFSQEFEEQQPKSRPKFQSPQIQATISPPLQPKTKTYEEDPKSKPKKEEKNMEVNMKEWILRYAEQQNEEEKNENSKSLEEEEKFDPNERYLHLAAKLLDAKEQAATFKLEKNKQGQKEAQEKIRKFQREMETLEDHPVFNPAMKISHQQNERKKPPVATEGESALNFNLFEKSAAATEEEKDKKKEPHDVRNFDYTARSWTGKSPKQFLIDWVRKNLPKSPNPSFEKVPVGRYWKCRVRVIKSEDDVLVVCPTILTEDGMQAQHLGATLALYRLVKGQSVHQLLPPTYRDVWLEWSDAEKKREELNKMETNKPRDLFIAKLLNKLKQQQQQQQQHSENKRENSEDPEESWENLVSDEDFSALSLESANVEDLEPVRNLFRKLQSTPKYQKLLKERQQLPVFKHRDSIVETLKRHRVVVVAGETGSGKSTQVPHFLLEDLLLNEWEASKCNIVCTQPRRISAVSLANRVCDELGCENGPGGRNSLCGYQIRMESRACESTRLLYCTTGVLLRKLQEDGLLSNVSHVIVDEVHERSVQSDFLLIILKEILQKRSDLHLILMSATVDSEKFSTYFTHCPILRISGRSYPVEVFHLEDIIEETGFVLEKDSEYCQKFLEEEEEVTINVTSKAGGIKKYQEYIPVQTGAHADLNPFYQKYSSRTQHAILYMNPHKINLDLILELLAYLDKSPQFRNIEGAVLIFLPGLAHIQQLYDLLSNDRRFYSERYKVIALHSILSTQDQAAAFTLPPPGVRKIVLATNIAETGITIPDVVFVIDTGRTKENKYHESSQMSSLVETFVSKASALQRQGRAGRVRDGFCFRMYTRERFEGFMDYSVPEILRVPLEELCLHIMKCNLGSPEDFLSKALDPPQLQVISNAMNLLRKIGACELNEPKLTPLGQHLAALPVNVKIGKMLIFGAIFGCLDPVATLAAVMTEKSPFTTPIGRKDEADLAKSALAMADSDHLTIYNAYLGWKKARQEGGYRSEITYCRRNFLNRTSLLTLEDVKQELIKLVKAAGFSSSTTSTSWEGNRASQTLSFQEIALLKAVLVAGLYDNVGKIIYTKSVDVTEKLACIVETAQGKAQVHPSSVNRDLQTHGWLLYQEKIRYARVYLRETTLITPFPVLLFGGDIEVQHRERLLSIDGWIYFQAPVKIAVIFKQLRVLIDSVLRKKLENPKMSLENDKILQIITELIKTENN
binds: all assays above
